Measurements: PMC4090178, “Structural and Biochemical Characterization of Human PR70 in Isolation and in Complex with the Scaffolding Subunit of Protein Phosphatase 2A” (PLoS ONE, 2014)

T1: PR70 core fragment (residues 130–483) (human, UniProt Q9Y5P8 130-483)
T1 construct: PR70 (B''β), regulatory B'' subunit of PP2A, human, product of PPP2R3B; The crystal (PDB 4MEW) was of the selenomethionine-labelled protein alone; the model holds residues 134–481; also called PR70 core domain; source: E. coli BL21(DE3), purified (IMAC, TEV cleavage, gel filtration); not shown: His tag, N-terminal, cleaved
T1 sequence (looked up): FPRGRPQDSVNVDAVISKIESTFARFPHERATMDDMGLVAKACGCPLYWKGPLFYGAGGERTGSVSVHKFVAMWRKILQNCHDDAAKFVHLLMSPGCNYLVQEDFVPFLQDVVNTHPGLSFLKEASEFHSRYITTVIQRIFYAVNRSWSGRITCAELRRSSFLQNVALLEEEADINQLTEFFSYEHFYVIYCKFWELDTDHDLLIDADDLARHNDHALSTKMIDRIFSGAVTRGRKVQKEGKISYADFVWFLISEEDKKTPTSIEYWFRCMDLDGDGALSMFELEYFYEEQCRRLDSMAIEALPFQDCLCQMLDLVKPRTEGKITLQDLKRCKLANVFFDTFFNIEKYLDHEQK

T2: PR70 (130–504) (human, UniProt Q9Y5P8 130-504)
T2 construct: PR70 (B''β), regulatory B'' subunit of PP2A, human, product of PPP2R3B; residues 130–504; source: E. coli BL21(DE3), purified (IMAC, TEV cleavage, gel filtration); not shown: His tag, N-terminal, cleaved
T2 sequence (looked up): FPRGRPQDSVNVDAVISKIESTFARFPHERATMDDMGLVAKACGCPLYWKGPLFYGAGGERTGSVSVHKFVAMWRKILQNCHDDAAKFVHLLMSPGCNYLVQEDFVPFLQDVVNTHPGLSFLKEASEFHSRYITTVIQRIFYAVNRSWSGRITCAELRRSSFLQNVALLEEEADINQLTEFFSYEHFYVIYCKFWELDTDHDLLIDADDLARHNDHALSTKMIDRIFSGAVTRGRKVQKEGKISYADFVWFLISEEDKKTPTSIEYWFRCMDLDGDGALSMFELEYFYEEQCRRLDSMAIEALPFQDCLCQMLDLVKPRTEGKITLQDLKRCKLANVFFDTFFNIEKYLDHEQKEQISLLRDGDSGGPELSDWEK

T3: PR70 (105–575) (human, UniProt Q9Y5P8 105-575)
T3 construct: PR70 (B''β), regulatory B'' subunit of PP2A, human, product of PPP2R3B; source: E. coli BL21(DE3), purified (IMAC, TEV cleavage, gel filtration); not shown: His tag, N-terminal, cleaved
T3 sequence (looked up): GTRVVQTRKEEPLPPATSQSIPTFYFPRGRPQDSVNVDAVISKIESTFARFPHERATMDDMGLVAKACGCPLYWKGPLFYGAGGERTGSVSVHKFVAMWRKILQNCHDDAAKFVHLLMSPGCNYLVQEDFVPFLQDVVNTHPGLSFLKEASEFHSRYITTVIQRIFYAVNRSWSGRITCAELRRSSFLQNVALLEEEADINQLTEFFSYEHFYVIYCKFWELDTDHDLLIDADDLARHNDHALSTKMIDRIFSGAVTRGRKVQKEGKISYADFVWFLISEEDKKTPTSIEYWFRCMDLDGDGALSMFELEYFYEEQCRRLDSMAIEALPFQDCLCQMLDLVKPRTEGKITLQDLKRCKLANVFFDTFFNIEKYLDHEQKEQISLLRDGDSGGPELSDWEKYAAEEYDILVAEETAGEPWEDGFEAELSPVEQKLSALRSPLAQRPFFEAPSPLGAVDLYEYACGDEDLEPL

T4: PR70 (25–575) (human, UniProt Q9Y5P8 25-575)
T4 construct: PR70 (B''β), regulatory B'' subunit of PP2A, human, product of PPP2R3B; also called B''/PR70; source: E. coli BL21(DE3), purified (IMAC, TEV cleavage, gel filtration); not shown: His tag, N-terminal, cleaved
T4 sequence (looked up): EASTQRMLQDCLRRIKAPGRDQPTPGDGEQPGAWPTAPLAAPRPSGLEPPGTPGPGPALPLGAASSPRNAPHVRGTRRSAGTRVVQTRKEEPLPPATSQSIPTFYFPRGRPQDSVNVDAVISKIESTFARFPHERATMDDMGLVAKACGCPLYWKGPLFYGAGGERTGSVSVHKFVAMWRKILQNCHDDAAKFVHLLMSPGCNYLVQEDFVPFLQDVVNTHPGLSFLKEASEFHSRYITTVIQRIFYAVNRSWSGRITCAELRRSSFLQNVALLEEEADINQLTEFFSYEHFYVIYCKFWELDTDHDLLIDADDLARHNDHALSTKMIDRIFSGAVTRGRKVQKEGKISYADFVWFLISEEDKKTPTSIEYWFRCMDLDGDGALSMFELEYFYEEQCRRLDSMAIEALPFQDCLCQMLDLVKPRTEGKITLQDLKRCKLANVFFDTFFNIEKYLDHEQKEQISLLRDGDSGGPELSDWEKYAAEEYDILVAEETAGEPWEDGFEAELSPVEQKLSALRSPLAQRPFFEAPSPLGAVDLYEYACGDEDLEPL


Experiments:
Conditions in all cases: both partners purified
A α (HEAT1–15) = target: T5, A α (HEAT1–15) (UniProt P30153 1-589); experiment: SAXS; complex purified on Superdex 200 in 20 mM Tris pH 7.5, 20 mM NaCl, 2 mM CaCl2, 0.5 mM TCEP, 1% glycerol at 15°C just prior to SAXS; 1.5 mg/ml
T5 construct: PP2A scaffolding subunit A, α isoform, product of PPP2R1A; HEAT repeats 1–15; calculated molecular weight 65.3 kD; also called full length A-subunit; scaffolding A subunit; source: E. coli BL21(DE3), purified (IMAC, TEV cleavage, gel filtration); not shown: His tag, N-terminal, cleaved

[1] = target: T1, PR70 core fragment (residues 130–483); experiment: ITC; B''-constructs at 20–40 µM in the cell titrated with 200–300 µM Aα or Aβ constructs; 15°C; 20 mM Tris pH 7.5, 200 mM NaCl, 2 mM CaCl2; 1:1 binding model
PR70 (130–504) = target: T2, PR70 (130–504); experiment: as above
PR70 (105–575) = target: T3, PR70 (105–575); experiment: as above
PR70 (25–575) = target: T4, PR70 (25–575); experiment: as above

binding result (A α (HEAT1–15))	Kd [1] [µM]	Kd (PR70 (130–504)) [µM]	Kd (PR70 (105–575)) [nM]	dH (PR70 (105–575)) [kcal/mol]	stoichiometry N (PR70 (105–575))	Kd (PR70 (25–575)) [nM]	dH (PR70 (25–575)) [kcal/mol]	stoichiometry N (PR70 (25–575))	Binder
binds	–	–	–	–	–	–	–	–	PR70 (130–575) (domain or fragment, human, UniProt Q9Y5P8 130-575, looked up, PR70 (B''β), regulatory B'' subunit of PP2A, human, product of PPP2R3B; Used only for SAXS of the complex with the A-subunit; source: E. coli BL21(DE3), purified (IMAC, TEV cleavage, gel filtration); not shown: His tag, N-terminal, cleaved) FPRGRPQDSVNVDAVISKIESTFARFPHERATMDDMGLVAKACGCPLYWKGPLFYGAGGERTGSVSVHKFVAMWRKILQNCHDDAAKFVHLLMSPGCNYLVQEDFVPFLQDVVNTHPGLSFLKEASEFHSRYITTVIQRIFYAVNRSWSGRITCAELRRSSFLQNVALLEEEADINQLTEFFSYEHFYVIYCKFWELDTDHDLLIDADDLARHNDHALSTKMIDRIFSGAVTRGRKVQKEGKISYADFVWFLISEEDKKTPTSIEYWFRCMDLDGDGALSMFELEYFYEEQCRRLDSMAIEALPFQDCLCQMLDLVKPRTEGKITLQDLKRCKLANVFFDTFFNIEKYLDHEQKEQISLLRDGDSGGPELSDWEKYAAEEYDILVAEETAGEPWEDGFEAELSPVEQKLSALRSPLAQRPFFEAPSPLGAVDLYEYACGDEDLEPL
–	> 100	> 100	158 ± 22	-20.3 ± 0.2	0.99 ± 0.01	223 ± 21	-19.1 ± 0.4	0.93 ± 0.02	A α (HEAT1–8) (domain or fragment, UniProt P30153 1-321, looked up, PP2A scaffolding subunit A, α isoform, product of PPP2R1A; HEAT repeats 1–8 (C-terminal repeats deleted); also called construct spanning HEAT repeats 1–8; source: E. coli BL21(DE3), purified (IMAC, TEV cleavage, gel filtration); not shown: His tag, N-terminal, cleaved) MAAADGDDSLYPIAVLIDELRNEDVQLRLNSIKKLSTIALALGVERTRSELLPFLTDTIYDEDEVLLALAEQLGTFTTLVGGPEYVHCLLPPLESLATVEETVVRDKAVESLRAISHEHSPSDLEAHFVPLVKRLAGGDWFTSRTSACGLFSVCYPRVSSAVKAELRQYFRNLCSDDTPMVRRAAASKLGEFAKVLELDNVKSEIIPMFSNLASDEQDSVRLLAVEACVNIAQLLPQEDLEALVMPTLRQAAEDKSWRVRYMVADKFTELQKAVGPEITKTDLVPAFQNLMKDCEAEVRAAASHKVKEFCENLSADCRENV
